Reference: the DeepSol protein solubility set

assay: soluble on expression in E. coli; label from the status in PepcDB or PDB records

Sequence	soluble on expression in E. coli
MSLAETLEKNAIDKSEYPQTAELENRCVNILADLWNAPKDMSYLGTSTVGSSEACMLGGLAMKFRWRNNAEKRGLDIQAKRPNLIISSGYQVCWEKFCVYWDVDMRVVPMDKNHLSLDVDKVFDLVDEYTIGVVGILGITYTGKFDDIQLLDEKVEAYNETNEHQLVIHIDGASGAMFTPFVNPELPWDFRLKNVVSINTSGHKYGLVYPGVGWILWKDKEYLPKELIFEVSYLGGSMPTMAINFSRSASQIIGQYYNFLRYGFEGYREIHEKTKKTAIYLAKTVEKSGYFEIINDGANLPIVCYKMKEGLDVEWTLYDLADQLLMKGWQVPAYPLPADLSDTIIQRFVCRADLGYNVAEEFAADFADAIHNLEHARVLYHDKERNDSYGFTHEGHHHHHH	soluble
MGSDKIHHHHHHMTVVRQTAAEQATATGRRRASFHTLTVAEVRRLTDDAIEVTFGVPAELAGQYDYLPGQYVALRTTMPDENGQPHEVRRSYSICAEPRSFADGSSEIRVAIKKDLGGLFSTWANAELKPGDQLDVMSPMGAFVSKHGRDGKAVEQNVMNSMNHPEDLVGEPGSFVAIAAGSGITPVIAIARTLLAANPETRFDLIYANKAAMDVMFLEELADLKDKYPSRLALHHVLSREQRIAPLLSGRIDAEKLQALLGTAIHADDVDEWFLCGPFELVQLCRDTLAARGVQPEHVRFELFTSGKPDRPEGNIGRPVIADESKDTYKITFKLDGLEGKVESPTHARESLLNAALRVRPDVPFACAGGVCGTCRAKVVTGAVTMDENYALEQDELDKGYVLTCQSHPTTPEVTVDFDV	not soluble
MGHHHHHHSHMLINARISVRSYPKYQRFSFFYALLFKRIDLILAQSKEDKKRLLNLGAKKVVDFLNIKRFSKPVITSFYPKNPSALNIVLASTHEGEEELGLKAFLELKKTFKNARLIVVPRHPERFKSVQDLLQNTLKTTPFSWECFSSKGFVECDILLVDSLGELNNFYQIADIVILGGSFVKMGGHNPLEPAFFNARLITGEYIFNQVALFELVKPYKIVPKEDLLDALLDYKNLGMARFLENGHDLNELLAFIKH	not soluble
MPNPFSKGWKYLTASLDNKIEENADPVIQIKQAAEAAKKQHADIEQQAASVIGNRNQLQMKLNRLLKDQQSIQEKARQALSLSDSATDPAEQHKYLNAAEVYASQLVGVESEIEQTTTLHQQAEQAAEQATQQVKQSEARLHEQLSQINELTTQAQQAKMQEAAVAASDQINSIDPDRDVPTMDSIREKIERRYADALGSQELMQSSMNERIHEIEATTSERDMRANAKLDAIRAQMRGELPAGSEETEPPADK	not soluble
MARLAIGGGSLCPAYGALRMQPVSTFPIYIVSIARARARLEKMLEGASGLGLDLRPVEGVDGKTISPDDWRDFDRRGFELRNGRHALPGEYGCYASHIKALETFLATDAPVAVIVEDDVAFTPDFSERVKAMVAAMPDDAIVKLTNHRRKGFKARKTSALGDTFGRCIYGPQGSSACYIISRRAAERFLKAARRMTLPFDRALECGWGYGTEVYITDKDFLPFGDPDTLVGTRDEYRGSKFARLKRVPAYLSSFYDNIARYIYAYRLEHHHHHH	soluble
MAIDVLDVISLSLFKQQIEFEEDDRDELITLYAQAAFDYCMRWCDEPAWKVAADIPAAVKGAVLLVFADMFEHRTAQSEVQLYENAAAERMMFIHRNWRGKAESEEGS	soluble
MTKLEVCCYSVDCAQIAEKAGADRVELCCGQSEGGVTPSVGALMQARETVTIPVHPIVRPRGGDFCYSSNDFTIMKNDIARIRDLGFAGVVVGVLDTDGHIDMPRMREIMSVSGSLAVTFHRAFDMCQNPMIALKQLAELNVARILTSGQQQNAELGLALLKDLVAATKDQGPIIMAGAGVRLTNMQKFIDAGIRELHSSAGRTVPSTMRYRKAGVTMCADSDVDEFSHYCVDGEVVEAMKSLLVMGSPLAKHT	soluble
MAHHHHHHMASGCLKYASVDDFIAKCILSRDPYQPEFTQAVREVMTSLWPFLQKNPKYTQDGLLERIVEPERVIQFRVPWVDDKGVTHVNRAFRVQFNSAIGPYKGGMRFHPSVNLSILKFLGFEQTFKNSLTTLPMGGGKGGADFDPKGKSDCEVMRFCQSLVAELYRHIGADTDVPAGDIGVGSREVGYMNGMYWKLRNTNECTFTGKGLAFQGSAIRPEATGYGLVYFVQSMLTHVNDSLEGKTVLVSGSGNVAQYAIEKCMELGAKVITASDSKGYIQDPSGFDKVKLAKLMKLKNECRGTLEEYARETGVTYVPGKRPWCVKADIALPCATQNEIEGADAKTMLTNGVKLVAEGANMPTTEEATEIFQKAGVLFAPGKASNAGGVAISGLEMSQNAARLVWDAEEVDSRLRSIMSSIHDSCVQYGEKDGKVSYVDGANIAGFACFLRRRTFATRVSPVHQVLCT	soluble
MARDGGVSCLRRSEMMSVGGIGGIESAPLDLDEVHVLAVDDSLVDRIVIERLLRITSCKVTAVDSGWRALEFLGLDNEKASAEFDRLKVDLIITDYCMPGMTGYELLKKIKESSNFREVPVVIMSSENVLTRIDRCLEEGAQDFLLKPVKLADVKRLRSHLTKDVKLSNGNKRKLPEDSSSVNSSLPPPSPPLTISPESSPPLTVSTESSDSSPPLSPVEIFSTSPLSSPIDDEDDDVLTSSSEESPIRRQKMRSPGLD	not soluble
MGSDKIHHHHHHMEIIAHRGFWNKESEKNTLTAIKRAIDNGYGFETDYRDNNGTIVISHNMPLGNEPTAEEIFRLYRDSGTESTLALNIKADGLQELLKDMLNTYQIKKYFLFDMSIPDTIDYILDNMNIATRHSEYEKEFPFYSQSSYVWMDCFKSEWISWGNLEEHLKSGKKVCIVSPELHRRPYKEVWNKYASFNHANLMLCTDFPMEADFFFNK	not soluble
GSSHHHHHHSSGLVPRGSHMRGQRGEVEQMKSCLRVLSQPMPPTAGEAEQAADQQEREGALELLADLCENMDNAADFCQLSGMHLLVGRYLEAGAAGLRWRAAQLIGTCSQNVAAIQEQVLGLGALRKLLRLLDRDACDTVRVKALFAISCLVREQEAGLLQFLRLDGFSVLMRAMQQQVQKLKVKSAFLLQNLLVGHPEHKGTLCSMGMVQQLVALVRTEHSPFHEHVLGALCSLVTDFPQGVRECREPELGLEELLRHRCQLLQQHEEYQEELEFCEKLLQTCFSSPADDSMDR	soluble
SLRPIPYLPNMIGLITGRASAAERDVTTVASARWPAARFAVRNVAVQGPNAVGQIVEALRELDRDPDVDVIVLARGGGSVEDLLPFSDETLCRAIAACRTPVVSAVGHEPDNPLCDLVVDLRAATPTDAAKKVVPDTAAEQRLIDDLRRRSAQALRNWVSREQRAVAQLRSRPVLADPMTMVSVRAEEVHRARSTLRRNLTLMVAAETERIGHLAARLATLGPAATLARGYAIVQTVAQTGPEGGSEPQVLRSVHDAPEGTKLRVRVADGALAAVSEGQTNGL	soluble
MNNETSGSRDMILKHFDSTQNNQNSVKLEHESSDNNESSGSQNFVFNFLMSQLQNMGPVEIKQEVEAKMLDDIEDEYTDNNYNEGYSKMDTDGDLEWEEEFKKLNKDPSKMDKREQERHRQMAKNREYARKCVQKKKDQRKHAEIRSNQIKKRIQLLKNKTAIKEKNANFAVDLRKMMSEIGVERLKLEYENEKMELNKKFAEMFAQDETVNLNFHRLASAREEFEKAAEDLRLKNGVIGTLGSRKIRAKQQMEWRQHLYQISAHEHEHHRETKLAELADEYVKQTVPKAAPLVTSIPKDMLDQLIKNNKTLDLEELCRFVADNLCLLQNDNDDKESVVK	not soluble
MAGSATVEKRLDFGLLGPLQMTIDGTPVPSGTPKQRAVLAMLVINRNRPVGVDALITALWEEWPPSGARASIHSYVSNLRKLLGGAGIDPRVVLAAAPPGYRLSIPDNTCDLGRFVAEKTAGVHAAAAGRFEQASRHLSAALREWRGPVLDDLRDFQFVEPFATALVEDKVLAHTAKAEAEIACGRASAVIAELEALTFEHPYREPLWTQLITAYYLSDRQSDALGAYRRVKTTLADDLGIDPGPTLRALNERILRQQPLDAKKSAKTTAAGTVTVLDQRTMASGQQAVAYLHDIASGRGYPLQAAATRIGRLHDNDIVLDSANVSRHHAVIVDTGTNYVINDLRSSNGVHVQHERIRSAVTLNDGDHIRICDHEFTFQISAGTHGGT	soluble
MGHHHHHHGGHMSLIGFLTDWGLKSHYVGVAKAVIKRINPSAEIIDITHEVEPFNVRKASHVLYRASLDFPPSTVFLVVVDYGVGTSRKAIVMKTKNDQYFVAPDNGVLTVVAEEYGVAEIREIENRELFYKKNPSFTFHGRDIFAPVAAHLDMGLPLERVGDRLLSYEVLKMRKPVVENEKVIGEVAIVDTFGNVSTNIPFDLFLKLSVDFDDVVRVRVGRKEFKAAVAKAFGDVDTGELLVHPDSAGFLEIAVNLGDASQVLSVKEGDEIEICREGGS	soluble
MAHHHHHHMSANGKISVPEAVVNWLFKVIQPIYNDGRTTFHDSLALLDNFHSLRPRTRVFTHSDGTPQLLLSIYGTISTGEDGSSPHSIPVIMWVPSMYPVKPPFISINLENFDMNTISSSLPIQEYIDSNGWIALPILHCWDPAAMNLIMVVQELMSLLHEPPQDQAP	soluble
HMSICTSEEWQGLMQFTLPVRLCKEIELFHFDIGPFENMWPGIFVYMVHRSCGTSCFELEKLCRFIMSVKKNYRRVPYHNWKHAVTVAHCMYAILQNNHTLFTDLERKGLLIACLCHDLDHRGFSNSYLQKFDHPLAALYSTSTMEQHHFSQTVSILQLEGHNIFSTLSSSEYEQVLEIIRKAIIATDLALYFGNRKQLEEMYQTGSLNLNNQSHRDRVIGLMMTACDLCSVTKLWPVTKLTANDIYAEFWAEGDEMKKLGIQPIPMMDRDKKDEVPQGQLGFYNAVAIPCYTTLTQILPPTEPLLKACRDNLSQWEKVIRGEETATWISSPSVAQKAAASED	soluble
MDMERNRLYFFYKRDDKLIERVKPLIELAERGPFVVVDDYREANIIVSIGDDGAFLQAVRQTGFLPDRLYVGVSVLPARGFYCDFHIDDIDHMVEAAKNWKLEVRRYPIIEVTIDGAASFFCLNECSIRSQIIKTMAIDVFIDDLHFETFRGDGIIVSTPTGSTGYNKSVHGAVVDPLLPCFQVSELASLNSNRYRTLGSPFILSGSRTLTLKMSEETSHFPIIGLDNEALSIQHIERIDIRLSDRVVKTVRLKDNSFWDKVKRVFL	not soluble
MMRGASKRSISSAAVLLIKKNKLPPRPKFTPEMEAQCTEKFLHGGRGPGGQKINKCNSKVQLRHEPTGIVVECQETRSREQNRKLARLKLARELAASYDTMPSREEALLQWHRQQKRSQRRRSVAKYEQREEAARVEKEEREARDREMVRELFRR	soluble
DLFVVEKPPSLPVHTCGQYAIHTVLGQLRVNEGRTGLRVLHRLDRATSGVLLFAKNYETDLEFKTTLKQGEWSKEYICKVDGVFPDEEQVCEQPIGPLVISMGIQCVRPDGKDAKSRFRKLWSDGTQSVVQVHIETGRTHQIRVHSQF	not soluble
MFSKKKDKFMVQLEEMVFNLDRAAIEFGKMDFNTHLDLKAYSDNIKTYESHGDELMHQVISDLNQTFITPIEREDILSLCNAIDDVLDAMEETSAMFEMYSIEYTDEYMAEFVENIQKAVAEMKLAVGLLVDKKLSHMRIHSINIKEFETNCDGILRQSMKHIFNSETDPITLIKIKDIYQSMEEIADKCQAVANNFETIIMKNSLEHHHHHH	soluble
